Results on eight molecules are retold here after patent publication US20260250421A1 (BIOCYTOGEN PHARMACEUTICALS BEIJING, published 2026).

Experiment [1] concerns the target T1, human PTK7 on human cancer cell lines (human, UniProt Q13308 31-1070).
T1 construct: Endogenous PTK7 of human tumour cell lines; also called PTK7 on A-431, NCI-H520, NCI-N87, SK-OV-3, BT-20, HCC1954, NCI-H226, NCI-H358, HCT116, PC-3, NCI-H292, NCI-H1975 cells
T1 sequence: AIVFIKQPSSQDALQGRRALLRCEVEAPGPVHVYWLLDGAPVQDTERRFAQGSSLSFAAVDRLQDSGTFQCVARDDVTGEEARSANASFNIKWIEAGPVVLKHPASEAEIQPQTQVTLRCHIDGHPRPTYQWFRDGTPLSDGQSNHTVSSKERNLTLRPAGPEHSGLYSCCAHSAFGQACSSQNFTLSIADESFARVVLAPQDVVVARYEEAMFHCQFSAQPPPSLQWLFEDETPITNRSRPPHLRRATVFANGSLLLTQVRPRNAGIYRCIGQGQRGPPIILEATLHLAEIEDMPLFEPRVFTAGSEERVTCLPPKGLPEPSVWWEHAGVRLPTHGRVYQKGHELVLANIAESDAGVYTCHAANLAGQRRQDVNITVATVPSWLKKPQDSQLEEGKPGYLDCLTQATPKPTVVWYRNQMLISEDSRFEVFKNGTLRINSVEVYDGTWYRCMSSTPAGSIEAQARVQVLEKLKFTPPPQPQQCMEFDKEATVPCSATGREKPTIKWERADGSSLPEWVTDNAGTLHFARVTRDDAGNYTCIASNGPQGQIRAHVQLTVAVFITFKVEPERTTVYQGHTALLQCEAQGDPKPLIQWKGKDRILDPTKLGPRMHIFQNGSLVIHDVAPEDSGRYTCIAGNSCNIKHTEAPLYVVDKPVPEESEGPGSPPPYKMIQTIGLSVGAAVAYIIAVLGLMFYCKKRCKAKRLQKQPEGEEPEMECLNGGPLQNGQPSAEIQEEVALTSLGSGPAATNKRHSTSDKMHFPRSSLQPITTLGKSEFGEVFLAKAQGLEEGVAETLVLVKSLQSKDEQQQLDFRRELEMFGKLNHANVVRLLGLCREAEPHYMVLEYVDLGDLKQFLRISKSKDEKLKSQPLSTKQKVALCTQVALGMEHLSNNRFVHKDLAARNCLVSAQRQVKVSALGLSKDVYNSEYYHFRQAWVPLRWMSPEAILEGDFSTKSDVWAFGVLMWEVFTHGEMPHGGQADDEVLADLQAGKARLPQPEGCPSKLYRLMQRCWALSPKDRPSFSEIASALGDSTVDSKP
In words: flow cytometry, SK-OV-3 cells, Ab 5 ug/mL. The protocol: (§1) The binding activity of anti-PTK7 antibodies to cancer cell lines was verified by flow cytometry. […] Purified anti-PTK7 antibody with a concentration of 5 μg/mL was added to each well and was incubated at 4° C. for 30 minutes. […] The cells were collected, and the mean fluorescence intensity (MFI) was determined. Human IgG1 was used as ISO control.

For experiment [2], the target named is T2, His-tagged human PTK7 protein (human, UniProt Q13308 31-704).
T2 construct: Bought protein; also called hPTK7-His; not shown: His tag
T2 sequence: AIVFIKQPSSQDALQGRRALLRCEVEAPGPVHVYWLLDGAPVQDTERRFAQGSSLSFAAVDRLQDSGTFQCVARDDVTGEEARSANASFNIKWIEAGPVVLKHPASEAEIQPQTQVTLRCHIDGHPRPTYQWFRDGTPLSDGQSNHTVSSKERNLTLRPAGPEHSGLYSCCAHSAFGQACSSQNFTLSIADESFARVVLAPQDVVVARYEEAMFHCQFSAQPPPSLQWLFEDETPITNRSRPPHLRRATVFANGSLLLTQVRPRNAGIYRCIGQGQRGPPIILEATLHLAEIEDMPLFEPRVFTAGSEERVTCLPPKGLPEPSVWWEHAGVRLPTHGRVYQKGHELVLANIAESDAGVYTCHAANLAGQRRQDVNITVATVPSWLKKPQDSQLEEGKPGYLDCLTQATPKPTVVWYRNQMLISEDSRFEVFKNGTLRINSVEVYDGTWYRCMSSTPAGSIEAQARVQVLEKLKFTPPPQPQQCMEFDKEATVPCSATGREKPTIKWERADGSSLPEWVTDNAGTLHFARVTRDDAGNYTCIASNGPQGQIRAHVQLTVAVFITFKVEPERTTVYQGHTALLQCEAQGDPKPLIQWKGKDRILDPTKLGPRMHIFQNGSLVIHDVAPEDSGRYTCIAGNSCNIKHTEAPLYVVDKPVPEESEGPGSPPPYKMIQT
In words: BLI Octet binning on hPTK7-His; competitor 1A7. The protocol:
Relative positions of target protein epitope between a pair of purified anti-PTK7 antibodies were analyzed by Biolayer Interferometry (BLI) using ForteBio Octet system at 30° C. A total of […] purified antibodies were used: 1A7, 1A11, 1F2, 2A5, 2D11, 2F5, 3C4 and 3E6.
1×HBS-EP+ buffer (10 mM 4-(2-hydroxyethyl)-1-piperazineethanesulfonic acid (HEPES), 150 mM NaCl, 3 mM ethylenediaminetetraacetic acid (EDTA) and 0.05% P20, pH7.4) diluted from HBS-EP+ buffer (10×) was used as the running buffer throughout the experiment. His-tagged human PTK7 protein was captured at a flow rate of 10 μL/min, and 200 nM of antibody (Analyte 1) was injected at a flow rate of 30 μL/min to bind the ligand. Another antibody (Analyte 2) was injected under the same conditions to determine whether the binding of different antibodies interfered with each other. The binding time was 300 s for each antibody.
The binding value of each antibody was obtained using Data Analysis HT 12.0. To quantify the interference of one antibody binding to another, a binding ratio was calculated to compare each pair of antibodies. The binding ratio is defined as the binding value of the second antibody (Analyte 2), divided by the binding value of the first antibody (Analyte 1). […] In general, antibody pairs that interfere with each other have the same or overlapping epitopes.

Experiment [3] deals with T1, human PTK7 on human cancer cell lines. In words: flow cytometry, NCI-H226 cells, Ab 5 ug/mL. The protocol:
as §1

B1: 1A7 (antibody, human IgG1, V domains shown)
VH: QVQLVESGGGVVQPGRSLRLSCAASGFTFSNYGMHWVRQAPGKGLEWVAVIYYDGSNKFYADSVKGRFTISRDNSKNTLYLQMSSLRAEDTAVYYCARDVAPPGSRAEYFHHWGQGTLVTVSS
VL: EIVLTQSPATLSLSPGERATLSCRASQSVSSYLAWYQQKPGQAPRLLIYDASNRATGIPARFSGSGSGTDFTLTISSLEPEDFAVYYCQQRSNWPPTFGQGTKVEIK
notes: also called anti-PTK7 antibody 1A7
Take B1: the figures for the MFI in experiment [1] and in experiment [3] were 197000 and 80200, respectively. For the same molecule, the binding ratio in experiment [2] is 0.08.

B2: 2F5 (antibody, V domains shown)
VH: QVQLVESGGGVVQPGRSLRLSCVASGFTFSNYGMHWVRQAPGKGLEWVAIIYYDGSNKYYADSVKGRFTISRDNSKNTLYLQMNSLRAEDTAVYYCARDVAAAGSRAEYLHHWGQGTLVTVSS
VL: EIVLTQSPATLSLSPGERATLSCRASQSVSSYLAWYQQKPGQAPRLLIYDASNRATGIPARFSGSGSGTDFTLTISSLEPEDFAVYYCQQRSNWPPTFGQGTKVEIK
notes: also called anti-PTK7 antibody 2F5
Regarding B2, the MFI in experiment [1] is 178000; in experiment [3], 80900. Also, the binding ratio in experiment [2] came out at 0.12.

B3: 2D11 (antibody, V domains shown)
VH: QVQLVESGGGVVQPGRSLRLSCAASGFTFSSYGMHWVRQAPGKGLEWVAVIFYDGSNKYYADSVKGRFTISRDNSKNTLYLQMNSLRAEDTSVYYCARDVAAPGSRAEYFQNWGQGTLVTVSS
VL: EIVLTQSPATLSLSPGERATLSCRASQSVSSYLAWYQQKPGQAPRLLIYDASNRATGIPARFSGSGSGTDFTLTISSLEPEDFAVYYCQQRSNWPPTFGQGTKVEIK
notes: also called anti-PTK7 antibody 2D11
B3: the MFI in experiment [1] amounted to 371000; in experiment [3], 180000. Also, the binding ratio in experiment [2] worked out at 0.17.

B4: 2A5 (antibody, V domains shown)
VH: QVQLVQSGGGVVQPGRSLRLSCAASGFTFSNYGMHWVRQAPGKGLEWVAVIWYDGRNKYYADSVKGRFTISRDNSKNTLYLQMNSLRAEDTAVYYCARDVAPAGSRAEYFQNWGQGTLVTVSS
VL: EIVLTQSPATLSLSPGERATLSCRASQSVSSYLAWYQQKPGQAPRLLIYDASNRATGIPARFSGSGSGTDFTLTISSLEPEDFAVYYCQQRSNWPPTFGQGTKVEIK
notes: also called anti-PTK7 antibody 2A5
Regarding B4, the MFI in experiment [1] stood at 283000; in experiment [3] it was 141000. In experiment [2], the binding ratio was -0.02.

B5: 3C4 (antibody, V domains shown)
VH: QVQLEQSRAEVKKPGESLRISCKGSGYSFTSYWISWVRQMPGKGLEWMGRIDPSDSYTNYNPSFQGHVTISADKSISTAYLQWSSLKASDTAMYYCARRDGSYFDFDYWGQGTLVTVSS
VL: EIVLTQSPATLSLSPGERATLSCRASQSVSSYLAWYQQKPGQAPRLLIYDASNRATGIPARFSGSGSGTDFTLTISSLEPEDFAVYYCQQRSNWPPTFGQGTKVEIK
notes: also called anti-PTK7 antibody 3C4
On to B5, for which the MFI in experiment [1] was 304000; in experiment [3], 167000. Moreover, in experiment [2], the binding ratio worked out at 0.87.

B6: 3E6 (antibody, V domains shown)
VH: QVQLVESGAEVKKPGESLRISCRGSGYSFTSYWISWVRQMPGKGLEWMGRIDPSDSYTKYSPSFQGHVTISADKSISTAYLQWSSLKASDTAMYYCARRDGDYFDFDYWGQGTLVTVSS
VL: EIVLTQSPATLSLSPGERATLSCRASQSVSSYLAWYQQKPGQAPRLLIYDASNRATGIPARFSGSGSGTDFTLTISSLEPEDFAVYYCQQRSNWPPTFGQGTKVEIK
notes: also called anti-PTK7 antibody 3E6
Regarding B6, the MFI in experiment [1] stood at 373000; in experiment [3], 193000. The binding ratio in experiment [2] came to 0.71.

B7: 1A11 (antibody, V domains shown)
VH: QVQLVQSGPGLVKPSETLSLTCTVSGGSINSYYWNWIRQPPGKGLEWIGYIYYSGSTNYNPSLKSRVTISVDTSKNQFSLKLSSVTAADTAVYYCARDPHDYIRGHFDLWGRGTLFTVSS
VL: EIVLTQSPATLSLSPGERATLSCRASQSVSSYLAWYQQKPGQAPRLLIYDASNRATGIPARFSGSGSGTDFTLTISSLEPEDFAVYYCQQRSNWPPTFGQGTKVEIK
notes: also called anti-PTK7 antibody 1A11
Turning to B7, the MFI stood at 319000 in experiment [1] and 152000 in experiment [3]. Also, the binding ratio in experiment [2] came out at 0.71.

B8: 1F2 (antibody, V domains shown)
VH: QVQLVQSGGGLVQPGGSLRLSCAASGFTFSRYEMNWVRQAPGKGLEWVSYINSIGSAINYADSVKGRFTISRDNAKNSLYLQMRSLRAEDTAVYYCVREDNWNPGYWGQGTLVTVSS
VL: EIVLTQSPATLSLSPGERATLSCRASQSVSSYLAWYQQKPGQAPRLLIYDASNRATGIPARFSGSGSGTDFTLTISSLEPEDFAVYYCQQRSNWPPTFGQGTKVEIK
notes: also called anti-PTK7 antibody 1F2
Take B8: the MFI in experiment [1] was 210000; in experiment [3] it was 94900. In addition, the binding ratio in experiment [2] is 0.64.
